Literature values as cited in article PMC8900815.

Target: His124 (UniProt position 124, EWVKGHAGHPE)
Test: NMR
Conditions: metal-free (no divalent cation bound)

Ribonuclease HI (RNase HI) (Escherichia coli)
pKa: around 7
